Data on 3 molecules can be found in PMC6668613 (Nature plants, 2019).

Broadly, the Kd is the free concentration of one partner at which half of the binding sites on the other are occupied at equilibrium, for simple one-to-one binding. A lower Kd goes with a tighter complex.

Common to all, as to experiment: BLI
(BLI is a label-free optical method that tracks binding on a fibre tip over time.)

In test [1] the target is T1, GST-MPK6 (Arabidopsis thaliana, UniProt Q39026 1-395).
In test [2] the target is T1, GST-MPK6. The source holds these as a separate data set.
A further test deals with T2, GST-MPK3 (Arabidopsis thaliana, UniProt Q39023 1-370).
T2 sequence (looked up): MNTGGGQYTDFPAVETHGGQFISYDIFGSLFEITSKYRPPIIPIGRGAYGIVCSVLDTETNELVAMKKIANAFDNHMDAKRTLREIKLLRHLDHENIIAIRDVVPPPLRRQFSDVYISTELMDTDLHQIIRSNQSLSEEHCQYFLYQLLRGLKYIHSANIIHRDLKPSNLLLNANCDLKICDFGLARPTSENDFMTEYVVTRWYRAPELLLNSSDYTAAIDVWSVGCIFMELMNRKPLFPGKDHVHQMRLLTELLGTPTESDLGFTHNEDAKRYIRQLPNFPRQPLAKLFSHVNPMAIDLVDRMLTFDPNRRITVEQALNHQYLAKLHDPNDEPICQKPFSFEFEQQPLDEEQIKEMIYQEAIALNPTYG

Like-named read-outs stand apart in the source and are kept apart here. Ends that are not written are not given here.

T1 sequence (Q39026 whole entry): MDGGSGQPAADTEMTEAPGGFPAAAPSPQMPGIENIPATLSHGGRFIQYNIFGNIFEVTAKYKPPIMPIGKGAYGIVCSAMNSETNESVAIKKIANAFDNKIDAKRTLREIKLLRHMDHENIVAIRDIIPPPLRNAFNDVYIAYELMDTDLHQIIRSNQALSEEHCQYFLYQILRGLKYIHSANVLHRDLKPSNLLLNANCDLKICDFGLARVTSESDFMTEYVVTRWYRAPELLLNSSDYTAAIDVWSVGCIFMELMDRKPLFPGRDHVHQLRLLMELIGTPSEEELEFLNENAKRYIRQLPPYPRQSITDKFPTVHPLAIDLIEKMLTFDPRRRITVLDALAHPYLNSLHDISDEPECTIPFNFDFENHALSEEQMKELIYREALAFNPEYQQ

With GGFVGNRAKVLKPLEVLASSGAQPTLFQKRAAMRQ (also: biotinylated, position not given here) [SCRM KiDoK full-length peptide, biotinylated], the affinity with GST-MPK6 [1], expressed as Kd, was 47 ± 6 nM. As to GGFVGNRAKVLKPLEVL (also: biotinylated, position not given here) [Docking motif peptide, biotinylated], binding with GST-MPK6 [2] was put at a Kd of 2300 ± 500 nM. In the case of ASSGAQPTLFQKRAAMRQ (also: biotinylated, position not given here) [KRAAM motif peptide, biotinylated], the figures for the Kd in the test with GST-MPK6 [2] and in the test with GST-MPK3 were 2400 ± 400 nM and 2800 ± 700 nM, respectively.
